# According to US11161912B2, “Heparanase-neutralizing monoclonal antibodies” (Technion Research & Development Foundation Limited, priority 2015, dated 2021):
# T1: recombinant active heparanase (Homo sapiens, UniProt Q9Y251, DEL111-157/INS109GSGSG)
# T1 sequence (Q9Y251 with tags, fused parts or gaps INS109GSGSG/DEL111-157): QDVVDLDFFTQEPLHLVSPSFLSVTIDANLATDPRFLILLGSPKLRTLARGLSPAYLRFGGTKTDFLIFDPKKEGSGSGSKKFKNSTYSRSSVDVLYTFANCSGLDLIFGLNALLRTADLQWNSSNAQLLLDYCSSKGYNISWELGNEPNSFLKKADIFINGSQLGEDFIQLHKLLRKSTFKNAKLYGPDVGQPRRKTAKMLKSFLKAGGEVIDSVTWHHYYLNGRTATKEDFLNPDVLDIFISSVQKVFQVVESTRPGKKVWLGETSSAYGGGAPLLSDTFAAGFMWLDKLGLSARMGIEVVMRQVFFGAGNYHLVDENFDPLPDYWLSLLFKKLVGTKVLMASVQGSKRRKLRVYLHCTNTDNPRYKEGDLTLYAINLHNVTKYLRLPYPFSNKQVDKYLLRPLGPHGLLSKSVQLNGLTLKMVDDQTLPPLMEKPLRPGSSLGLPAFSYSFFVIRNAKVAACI
# Target: T1, recombinant active heparanase
# Test: Heparanase enzymatic activity on 35S-labelled ECM, enzyme pre-incubated with antibody
# Assay type: biochemical
# Settings: antibody 2 μg/ml, heparanase 200 ng, pre-incubated 2 h on ice
# Experimental: Cell lysates, heparanase activity and protein blotting. Preparation of cell lysates, protein blotting, and measurement of heparanase enzymatic activity were carried out as described (Vlodaysky I, et al. 1999, Nature Med 5(7):793-802; Arvatz et at, 2011, FASEB J 24(12):4969-4976). […] Likewise, cell lysates or tumor extracts were incubated (12 h, 37° C., pH 6.0) with the labeled ECM and sulfate labeled degradation fragments released into the incubation medium were analyzed by gel filtration on a Sepharose CL-6B column. Degradation fragments of HS side chains are eluted from Sepharose 6B at 0.5<Kav<0.8 (peak II, fractions 17-30). Nearly intact sulfate labeled HSPGs are eluted just after the void volume (Kav<0.2, peak I, fractions 1-10). […]
# FIG. 2A. […] The mixture was then applied onto dishes coated with ^35S-labeled ECM and heparanase enzymatic activity was determined as described under “Materials and Methods”. […] Blood vessels density was quantified by counting the number of CD31-positive vessels per field and is presented graphically at the right second panel. At least 25 fields of each treatment were counted. […]
# FIG. 3A. […] The mixture was then applied onto ^35S-labeled ECM-coated dishes and heparanase activity was determined as described above (lower panel). […] Quantification of the extent of CD45 staining is shown graphically in the lower panel. […]
molecule,measurement,value
"mAb 9E8: monoclonal IgM raised against KKDC peptide (Lys158-Asn171) of heparanase; VH SEQ ID NO: 7, VL SEQ ID NO: 8 (antibody, IgM constant regions) VH: EVKLLESGGGLVQPGGSLKLSCAASGFDFSRYWMSWVRQAPGKGLEWIGEINPDSSTINYTPSLKDKFIISRDNAKNTLYLQMSKVRSEDTALYYCARRGYEGNYAMDYWGQGTSVTVSSESQSFPNVFPLVSCESPLSDKNLVAMGCLAR VL: DIVMTQAAPSVPVTPGESVSISCRSSKSLLHSNGNTYLYWFLQRPGQSPQLLIYRMSNLASGVPDRFSGSGSGTAFTLRISRVEAEDVGVYYCMQHLEYPFTFGSGTKLEIKRADAAPTVSIFPPSSEQLTSGGASVVCFL",neutralization of heparanase enzymatic activity,neutralizes heparanase enzymatic activity to magnitude comparable with the polyclonal antibody #1453
